In patent US20160326230A1 (SHANGHAI HENGRUI PHARMACEUTICAL, published 2016):
No end group written: not given here.

Molecular target: the receptor on THP-1 cells
Assay: cell-based or functional assay

- EC50 (ng/ml) of cAMP induced in THP-1 cells (cAMP ELISA): 3.03 ng/mL
B1: recombinant human relaxin 800828 (WT, wild-type) (ligand)
chain 1: DSWMEEVIKLCGRELVRAQIAICGMSTWS
chain 2: QLYSALANKCCHVGCTKRSLARFC
modifications: not fully specified; ends and bridges not checked
